From patent US20230280343A1 (NEW YORK UNIVERSITY, published 2023)

Target: T1, SARS-CoV-2 spike receptor binding domain (RBD) (SARS-CoV-2, UniProt P0DTC2 319-541)
T1 construct: domain: RBD

## GDLAPQMLRELQETNAALQDVRELLRQQVKEITFLKNTVMECDACGKLN (other, also called parent protein C; ccCOMP) [coiled-coil domain of the cartilage oligomeric matrix protein (C)]
  binding result: no binding
